Test results from article PMC7293033.

Experiments:
GST-UAP56 (human) = GST-UAP56 (human) (UniProt Q13838); assay: SPR; UAP56 with API5, FGF2, the API5–FGF2 complex or PBK as analyte proteins; purified recombinant proteins
[1] = target: His-FGF2, LMW FGF2 (residues 135-288, C211S/C229S) (UniProt P09038); assay: SPR; settings: concentration series 0.031, 0.063, 0.13, 0.25, 0.50, 1.0, 2.0, 4.0, 8.0, 16 µM
[2] = target: His-API5 3Mut (E184A/D185A/E190A) (human); assay: SPR; purified recombinant His-API5 and His-FGF2; who was immobilised is not given in the source
[3] = target: His-API5 (apoptosis inhibitor 5, residues 1-504, isoform 2), wild type (human); assay: as above
[4] = target: His-API5 (apoptosis inhibitor 5, residues 1-504, isoform 2), wild type; assay: SPR; settings: concentration series 0.13, 0.25, 0.50, 1.0, 2.0, 4.0, 8.0, 16 µM

Chain of GST-UAP56 (human) (Q13838 whole entry, the tested form may be a part): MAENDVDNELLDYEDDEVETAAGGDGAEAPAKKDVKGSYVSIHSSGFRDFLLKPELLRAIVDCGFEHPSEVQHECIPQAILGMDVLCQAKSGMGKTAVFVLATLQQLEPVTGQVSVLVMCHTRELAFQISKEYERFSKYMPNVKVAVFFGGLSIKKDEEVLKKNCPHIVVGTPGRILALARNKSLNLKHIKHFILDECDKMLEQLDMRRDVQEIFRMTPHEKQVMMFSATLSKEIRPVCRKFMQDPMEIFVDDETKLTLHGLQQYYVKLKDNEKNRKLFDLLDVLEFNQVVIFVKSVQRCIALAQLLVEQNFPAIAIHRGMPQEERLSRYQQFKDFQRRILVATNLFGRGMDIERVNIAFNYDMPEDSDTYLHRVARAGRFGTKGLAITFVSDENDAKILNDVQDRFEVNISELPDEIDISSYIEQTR
Chain of His-FGF2, LMW FGF2 (residues 135-288, C211S/C229S) (P09038 135-288 C211S/C229S): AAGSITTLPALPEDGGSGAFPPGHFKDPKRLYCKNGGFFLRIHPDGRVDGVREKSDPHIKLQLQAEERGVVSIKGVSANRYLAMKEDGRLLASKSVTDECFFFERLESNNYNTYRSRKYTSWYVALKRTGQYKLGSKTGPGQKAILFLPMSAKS

Substance	Kd (GST-UAP56 (human))	Kd [2]	Kd [3]	other results
His-API5 (apoptosis inhibitor 5, residues 1-504, isoform 2), wild type (natural protein)	1370 nM			
His-API5 (apoptosis inhibitor 5, residues 1-504, isoform 2), wild type E184A; D185A; E190A				kon [1]: 2260 M⁻¹ s⁻¹
His-FGF2, LMW FGF2 (residues 135-288, C211S/C229S) (from UniProt P09038 135-288) (natural protein)		4.2 µM	676 nM	
His-FGF2, LMW FGF2 (residues 135-288, C211S/C229S) (from UniProt P09038) R262A; T263A; K271A				kon [4]: 1660 M⁻¹ s⁻¹

The next lines start with results.

Kd (GST-UAP56 (human))	Kd [2]	Kd [3]	Substance	other results
199 nM			API5–FGF2 complex (His-API5 with His-LMW FGF2) (from UniProt P09038 135-288)	
	17.3 µM	1510 nM	His-FGF2 Mut (C211S/C229S/R262A/T263A/K271A) (from UniProt P09038 135-288) (natural protein)	
